Data reported in paper PMC5864728.

Target: human ICAM-1 extracellular domain with human IgG1 Fc (UniProt P05362)
Test: flow cytometry on cells
Conditions: HEK293FT cells; co-expressed with β2-WT and GFP-TH; parent: est. 270; read off a plot

UniProt P05362, sequence (P05362 whole entry, looked up, the tested form may be a part): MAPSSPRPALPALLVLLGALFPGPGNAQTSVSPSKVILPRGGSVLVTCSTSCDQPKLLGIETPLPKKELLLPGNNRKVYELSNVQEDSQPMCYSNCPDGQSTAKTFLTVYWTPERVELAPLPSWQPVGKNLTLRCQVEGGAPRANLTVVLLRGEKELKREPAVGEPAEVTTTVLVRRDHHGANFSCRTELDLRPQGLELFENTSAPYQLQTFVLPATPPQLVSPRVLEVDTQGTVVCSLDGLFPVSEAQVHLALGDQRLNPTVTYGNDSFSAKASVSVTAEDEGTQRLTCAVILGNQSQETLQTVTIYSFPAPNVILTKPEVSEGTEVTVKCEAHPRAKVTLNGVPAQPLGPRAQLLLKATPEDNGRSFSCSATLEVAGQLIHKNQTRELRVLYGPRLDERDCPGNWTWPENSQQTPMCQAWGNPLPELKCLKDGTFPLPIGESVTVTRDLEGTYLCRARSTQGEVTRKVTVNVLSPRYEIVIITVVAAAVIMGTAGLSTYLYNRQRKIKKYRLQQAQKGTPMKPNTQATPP

Substance	response (Normalized MFI in %)
αL-WT/β2-WT αL:K1097Y	190
αL-WT/β2-WT αL:L1096Y	230
